± gives the standard deviation of the averaged measurements.

The text below walks through data of the supplement of paper PMC10724198.
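Also: PSI is a weighted mean of sequencing reads over stability bins, variants kept only with over 10 reads, mCherry proximal and sfGFP distal, peptide attached via GGGS linker.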

For the data set, the system named is Saccharomyces cerevisiae. Nature of the data set: protein stability index of tFT-peptide fusion (C-terminal peptide) (PSI (0-1 scale)); higher = more stable (slower turnover). The conditions noted are these: genetic background: wild type; temperature: 30 C. Here is the method: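 Multiplexed protein stability (MPS) profiling in S. cerevisiae. Random 12-aa peptides (tFT-X12 library) are fused to the C-terminus of a sfGFP-mCherry tandem fluorescent timer, after mCherry and a GGGS linker. Cells are FACS-sorted into 8 mCherry/sfGFP bins and deep-sequenced. The protein stability index (PSI) is the read-weighted bin average, scaled from 0 (unstable) to 1 (stable). Only peptides with >10 reads are reported; cells were grown at 30 °C in SC-His with glucose.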
GGGGFLGVVGVG displayed a protein stability index of 0.58 ± 0.01.
Take GGGGGGGGSLRV: the protein stability index was found to be 0.663 ± 0.038.
As to GGGGGGGGVKGV, the protein stability index came to 0.66 ± 0.02.
Turning to GGGGGGSTPALG, the protein stability index was 0.667 ± 0.028.
The result for GGGGGLRGRGVR reads 0.682 ± 0.057.
The result for GGGGGLVGGCVA reads 0.696 ± 0.081.
As for GGGGGWGVAGGV, the protein stability index was determined as 0.689 ± 0.013.
Turning to GGGGLGTAVVGV, the protein stability index is 0.6748 ± 0.0024.
Turning to GGGGSTIGVYVL, the protein stability index was determined as 0.686 ± 0.0047.
As to GGGGVVGGLLCS, the protein stability index was 0.761 ± 0.027.
In the case of GGGKINSLHGAG it was 0.681 ± 0.041.
GGGLGGAGFRGG yielded a protein stability index of 0.661 ± 0.051.
For GGGRGGARVGQL, the protein stability index was 0.661 ± 0.013.
As to GGGRGVVVTCST, the protein stability index is 0.713 ± 0.038.
For the sequence GGGRRVRRGGGR, the protein stability index was found to be 0.678 ± 0.056.
GGGSFVGLDFGG showed a protein stability index of 0.6567 ± 0.0036.
GGGVGGGVGQRG came in with a protein stability index of 0.705 ± 0.086.
GGGVLLWEGGGW came in with a protein stability index of 0.711 ± 0.02.
The result for GGGVRWRVGRGG reads 0.686 ± 0.0082; that for GGGVSFWLGAVA, 0.647 ± 0.0081.
With GGGVVRGLEQRA, the protein stability index amounted to 0.637 ± 0.074.
In the case of GGGVYPAGVVSG it was 0.658 ± 0.01; in that of GGGWGLRVSCGT, 0.656 ± 0.071; in that of GGGWGRSKTETT, 0.672 ± 0.023.
In the case of GGGWGWAGENTR it was 0.698 ± 0.038; in that of GGILSRVFFLCG, 0.679 ± 0.017; in that of GGIQPEQYLNTL, 0.688 ± 0.019.
Regarding GGIVVRGVGVRC, the protein stability index was determined as 0.661 ± 0.04.
GGKGGWHRRWGC returned a protein stability index of 0.643 ± 0.062.
GGLGGVRAGREG displayed a protein stability index of 0.711 ± 0.02.
GGLGREKLGGWR returned a protein stability index of 0.65 ± 0.091.
In turn, GGLICRQGVGRG showed a protein stability index of 0.748 ± 0.033.
In the case of GGLLSTVVVRVL, the protein stability index came to 0.524 ± 0.022.
The result for GGLRGERAGTDG reads 0.637 ± 0.02; that for GGLRGRPPASHR, 0.727 ± 0.074; that for GGLSGRFRSPSL, 0.754 ± 0.081.
Turning to GGLWGSGGASGG, the protein stability index is 0.742 ± 0.073.
On to GGMDEVFRAHGP, for which the protein stability index is 0.712 ± 0.018.
The result for GGMRGGYRGRCV reads 0.679 ± 0.039.
Consider GGPHYVYPFCSF, for which the protein stability index worked out at 0.699 ± 0.019.
The sequence GGPPFAPPPPPH gave a protein stability index of 0.71 ± 0.026.
For the sequence GGPVEQVYSKGR, the protein stability index was determined as 0.721 ± 0.042.
The result for GGQEEWFGGAWL reads 0.727 ± 0.036; that for GGRARRGLGGPG, 0.6758 ± 0.0034.
The result for GGRDVGEMVDLQ reads 0.758 ± 0.14; that for GGRGGCGCGWVV, 0.682 ± 0.11; that for GGRGGRGQGWYR, 0.661 ± 0.007.
The result for GGRGGVWWVGRV reads 0.675 ± 0.037; that for GGRGLGVVGEVL, 0.72 ± 0.046.
Turning to GGRGVGVVLGVC, the protein stability index was 0.5219 ± 0.00031.
With GGRGWEGRGGSG, the protein stability index was determined as 0.684 ± 0.022.
As to GGRLGRGAKGRV, the protein stability index was 0.669 ± 0.082.
In the case of GGRPVTGIAGML it was 0.666 ± 0.025; in that of GGRTFHPLWGTT, 0.735 ± 0.029.
The sequence GGRWNRNSGRGG had a protein stability index of 0.693 ± 0.021.
In the case of GGSARSIPVHVV, the protein stability index worked out at 0.584 ± 0.025.
In the case of GGSDQLGDSVAG it was 0.647 ± 0.057; in that of GGSETHLTVTIY, 0.636 ± 0.0077.
In turn, GGSGAVRSVGEW gave a protein stability index of 0.668 ± 0.036.
GGSSVGALGCLC gave a protein stability index of 0.687 ± 0.0084.
Regarding GGTPGSYDIIGV, the protein stability index turned out to be 0.728 ± 0.016.
GGVGGPVLGAGG yielded a protein stability index of 0.638 ± 0.051.
GGVGRAALRWYG returned a protein stability index of 0.68 ± 0.03.
Consider GGVGRRVRLGAE, for which the protein stability index stood at 0.625 ± 0.037.
As for GGVGSCLVLSAR, the protein stability index was 0.668 ± 0.036.
GGVLGRRLLGGR registered a protein stability index of 0.64 ± 0.051.
On to GGVPRNRAQIGV, for which the protein stability index was determined as 0.758 ± 0.082.
Consider GGVRGWAAFSAE, for which the protein stability index was found to be 0.682 ± 0.028.
Regarding GGVRRRSAVGVR, the protein stability index was found to be 0.65129 ± 0.00017.
Sequence GGVSKGLGARGR registered a protein stability index of 0.601 ± 0.042.
GGVTEGPGWCVR registered a protein stability index of 0.735 ± 0.017.
In the case of GGVVEGVSLAQC, the protein stability index was 0.727 ± 0.049.
GGVVGASMSGTP yielded a protein stability index of 0.683 ± 0.023.
Sequence GGVVLTWLGENC gave a protein stability index of 0.717 ± 0.025.
The sequence GGVWAGEATGVQ registered a protein stability index of 0.666 ± 0.052.
In turn, GGVWWLGVVGGV registered a protein stability index of 0.657 ± 0.081.
The result for GGWCGSGGVVRG reads 0.675 ± 0.12.
